Measurements taken from patent EP4703474A1, “ANTI-LRRC15 ANTIBODY” (priority 2023, dated 2024).

Legend:
[1] = test system: Esophageal carcinoma cell line EC-GI-10; experiment: In vivo antitumor effect, EC-GI-10 subcutaneous transplant model; conditions: 0.4 mg/kg, tail vein, on Day 35, female NSG mice
Method: (§1) The antitumor effects of the antibody-drug conjugates were evaluated by using animal models in which cells of a human tumor cell line had been transplanted into immunodeficient mice, or cells of a mouse tumor cell line had been transplanted into immunocompetent mice. 4 to 6 Week-old SCID mice (CB17/Icr-Prkdc[scid]/CrlCrlj, Jackson Laboratory Japan, Inc.), NSG mice (NOD.Cg-Prkdcscid Il2rgtm1Wjl/SzJ, Jackson Laboratory Japan, Inc.), or B6J mice (C57BL/6J, Jackson Laboratory Japan, Inc.) were habituated for 3 days or more under SPF conditions before experimental use. The mice were fed with sterilized solid feed and given sterilized tap water. The major and minor diameters of the transplanted tumors were measured twice a week with an electronic digital caliper (Mitutoyo Corporation), and the estimated tumor volume was calculated using the following formula. Estimated tumor volume (mm^3) = 1/2 × major diameter (mm) × [minor diameter (mm)]^2 All antibody-drug conjugates were diluted with ABS and administered into the tail vein at doses shown in each Example. In addition, ABS (vehicle) or control hIgG-PBD prepared in Reference Example 4 was administered as the control group, in a similar manner. 5 to 6 Mice were used per group in the experiment. To analyze the LRRC15 expression in mouse tumor models, immunohistochemical staining of LRRC15 was performed. […]

[2] = test system: Gastric carcinoma cell line NCI-N87; experiment: In vivo antitumor effect, NCI-N87 subcutaneous transplant model; conditions: 0.4 mg/kg, tail vein, on Day 10, female SCID mice
Method: as §1

B1: H02L01-V1-PBD (conjugate)
heavy: EVQLVESGGGLVQPGGSLRLSCAASGFTFRDYYMAWVRQAPGKGLEWVSSIGFDESRTYYADSVKGRFTISRDDSKNTLYLQMNSLRAEDTAVYYCARHGVSKYSGDNWFAYWGQGTLVTVSSASTKGPSVFPLAPSSKSTSGGTAALGCLVKDYFPEPVTVSWNSGALTSGVHTFPAVLQSSGLYSLSSVVTVPSSSLGTQTYICNVNHKPSNTKVDKKVEPKSCDKTHTCPPCPAPEAAGGPSVFLFPPKPKDTLMISRTPEVTCVVVDVSHEDPEVKFNWYVDGVEVHNAKTKPREEQYNSTYRVVSVLTVLHQDWLNGKEYKCKVSNKALAAPIEKTISKAKGQPREPQVYTLPPSREEMTKNQVSLTCLVKGFYPSDIAVEWESNGQPENNYKTTPPVLDSDGSFFLYSKLTVDKSRWQQGNVFSCSVMHEALHNHYTQKSLSLSPGK
light: DIQMTQSPSSLSASVGDRVTITCKSSQGLLYSGDQKNYLAWYQQKPGKAPKLLIYWASTRQSGVPSRFSGSGSGTDFTLTISSLQPEDFATYYCQQYYDPPYTFGQGTKVEIKRTVAAPSVFIFPPSDEQLKSGTASVVCLLNNFYPREAKVQWKVDNALQSGNSQESVTEQDSKDSTYSLSSTLTLSKADYEKHKVYACEVTHQGLSSPVTKSFNRGEC
In the case of B1, the “antitumor effect (estimated tumor volume)” value [1] is reported as “antitumor activity higher than that of the vehicle and control hIgG-PBD” and the “antitumor effect (estimated tumor volume)” value [2] is reported as “antitumor activity higher than that of the vehicle”.
